B1: substrate-4 (RNA-4/Cy5 DNA) (mixed)
DNA 1: GGCACCAACACAAAACACATCTACACUCAACAAUCACUUU
DNA 2: GTAGATGTGTTTTGTGTTGGTGCC
modifications: strand 1 RNA with DNA at nt 17-24 (duplex end proximal to overhang)
B2: substrate-5 (RNA-5/Cy5 DNA) (mixed)
RNA: GGCACCAACACAAAACACAUCUACACUCAACAAUCACUUU
DNA: GTAGATGTGTTTTGTGTTGGTGCC
modifications: strand 1 RNA with DNA at nt 9-16 (middle of duplex)
B3: substrate-1 (RNA-1/Cy5 DNA) (DNA:RNA)
RNA: GGCACCAACACAAAACACAUCUACACUCAACAAU
DNA: GTAGATGTGTTTTGTGTTGGTGCC

Target: Prp43p;Ntr1p (1-120) (Saccharomyces cerevisiae (budding …, UniProt P53131;Q06411 1-767;1-120, |))
Assay: EMSA

Sequence of Prp43p;Ntr1p (1-120) (Saccharomyces cerevisiae (P53131 whole entry, chain 1 of 2): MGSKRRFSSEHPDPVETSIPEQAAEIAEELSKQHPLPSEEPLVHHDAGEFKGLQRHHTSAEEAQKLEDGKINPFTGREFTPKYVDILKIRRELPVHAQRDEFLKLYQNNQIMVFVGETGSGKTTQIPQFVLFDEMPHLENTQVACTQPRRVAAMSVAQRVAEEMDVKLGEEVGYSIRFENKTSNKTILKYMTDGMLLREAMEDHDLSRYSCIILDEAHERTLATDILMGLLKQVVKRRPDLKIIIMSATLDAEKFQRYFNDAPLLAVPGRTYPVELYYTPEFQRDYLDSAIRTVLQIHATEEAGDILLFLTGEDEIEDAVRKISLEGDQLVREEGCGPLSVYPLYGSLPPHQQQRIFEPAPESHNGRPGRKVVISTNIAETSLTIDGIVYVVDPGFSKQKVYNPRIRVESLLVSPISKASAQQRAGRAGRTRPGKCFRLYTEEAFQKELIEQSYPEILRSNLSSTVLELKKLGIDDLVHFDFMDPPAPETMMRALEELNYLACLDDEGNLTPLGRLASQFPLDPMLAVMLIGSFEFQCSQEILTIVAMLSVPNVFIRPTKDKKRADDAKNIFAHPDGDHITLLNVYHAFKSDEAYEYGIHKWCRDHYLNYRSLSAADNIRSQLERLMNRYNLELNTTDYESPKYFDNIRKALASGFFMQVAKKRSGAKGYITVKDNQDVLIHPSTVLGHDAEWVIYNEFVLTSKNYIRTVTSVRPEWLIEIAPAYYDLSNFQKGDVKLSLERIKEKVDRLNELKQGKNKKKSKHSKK
Sequence of Prp43p;Ntr1p (1-120) (Saccharomyces cerevisiae (Q06411 1-120, chain 2 of 2): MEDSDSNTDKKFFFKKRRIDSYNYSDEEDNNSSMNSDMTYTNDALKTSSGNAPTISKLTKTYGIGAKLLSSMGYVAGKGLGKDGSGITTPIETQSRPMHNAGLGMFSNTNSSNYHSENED

Binder	binding result
B1	binds
B2	binds
B3	binds
